Measured values published in publication PMC9547493 (2020).
Bridge positions count the residues as written; N and C are the ends. Ends that are not written are not given here. γCp(RSS) = N-terminal (R,S,S)-cyclopropane γ-amino acid; γCp(SRR) = N-terminal (S,R,R)-cyclopropane γ-amino acid

Key:
CeiPGM-γCp(SRR) = biological target: T1, CeiPGM-γCp(SRR) (synthetic construct, thioether N-14); experiment: SPR
T1 chain: {γCp(SRR)}-FSISGIEWNGPEIC

CeiPGM-γCp(RSS) = biological target: T2, CeiPGM-γCp(RSS) (synthetic construct, thioether N-14); experiment: SPR
T2 chain: {γCp(RSS)}-FSISGIEWNGPEIC

B1: CeiPGM (cofactor-independent phosphoglycerate mutase) (protein)
chain: MFVALGAQIYRQYFGRRGMAMANNSSVANKVCLIVIDGWGVSEDPYGNAILNAQTPVMDKLCSGNWAQIEAHGLHVGLPEGLMGNSEVGHLNIGAGRVIYQDIVRINLAVKNNKFVTNESLVDACDRAKNGNGRLHLAGLVSDGGVHSHIDHMFALVKAIKELGVPELYLHFYGDGRDTSPNSGVGFLEQTLEFLEKTTGYGKLATVVGRYYAMDRDNRWERINVAYEAMIGGVGETSDEAGVVEVVRKRYAADETDEFLKPIILQGEKGRVQNDDTIIFFDYRADRMREISAAMGMDRYKDCNSKLAHPSNLQVYGMTQYKAEFPFKSLFPPASNKNVLAEWLAEQKVSQFHCAETEKYAHVTFFFNGGLEKQFEGEERCLVPSPKVATYDLQPEMSAAGVADKMIEQLEAGTHPFIMCNFAPPDMVGHTGVYEAAVKACEATDIAIGRIYEATQKHGYSLMVTADHGNAEKMKAPDGGKHTAHTCYRVPLTLSHPGFKFVDPADRHPALCDVAPTVLAIMGLPQPAEMTGVSIVQKI
CeiPGM-γCp(SRR)
  Kd: 0.8 nM
CeiPGM-γCp(RSS)
  Kd: 0.3 nM
